Laboratory results published in patent publication US7576101B2, “Composition for and treatment of demyelinating diseases and paralysis by administration of remyelinating agents” (Elan Pharmaceuticals, Inc., priority 2003, dated 2009).
One block for each molecule: values may come before it.

Assays:
[1] = target: human α4β1 integrin (human) (UniProt P13612); test: cell-based or functional assay
[2] = target: rat α4 integrin on rat lymphocytes (rat); test: cell-based or functional assay
VLA-4 = VLA-4 (Homo sapiens, UniProt P13612); settings: cited from earlier work
[3] = test system: human lymphocyte binding to rat brain cells; settings: cited from earlier work

Relative Binding to EAE Vessels (% of control), U937 cells [1]: 338 % of control
Molecule: HP1/7 (antibody)

Relative Binding to EAE Vessels (% of Control), human lymphocytes [1]: 7 % of Control
Relative Binding to EAE Vessels (% of control), U937 cells [1]: 8 % of control
Molecule: AIIB2 (antibody)

% Input Binding Jurkat, TNFα-stimulated rat brain EC clone [1]: 6 % input
% Input Binding Ramos, TNFα-stimulated rat brain EC clone [1]: 2 % input
% Input Binding U937 to VCAM-1 transfected L cells [1]: 3 % input
% inhibition of Jurkat binding to FN-coated plate [1]: 47 % inhibition
% input bound, Jurkat cells on FN-coated plate (% input bound) [1]: 42
% input cells bound, U937 on TNFα-stimulated primary rat brain EC (% input cells bound) [1]: 13
Binding of U937 cells to inflamed vessels in sections of EAE brain [1]: 3
Relative Binding to EAE Vessels (% of Control), human lymphocytes [1]: 1 % of Control
Relative Binding to EAE Vessels (% of control), U937 cells [1]: 3 % of control
Relative Binding to EAE Vessels (% of control), U937 cells, tested at 25° C. [1]: 5 % of control
Relative Binding to EAE Vessels (% of Control), rat lymphocytes [2]: 18 % of Control
Molecule: HP2/1 (antibody)

Relative Binding to EAE Vessels (% of control), U937 cells [1]: 151 % of control
Molecule: P4G9 (antibody)

B1: mu MAb 21.6: mouse monoclonal antibody specific for the alpha-4 subunit of VLA-4; donor immunoglobulin for humanization (antibody, V domains shown)
VH: EVQLQQSGAELVKPGASVKLSCTASGFNIKDTYIHCVKQRPEQGLEWIGRIDPANGYTKYDPKFQGKATITADTSSNTAYLQLSSLTSEDTAVYFCAREGYYGNYGVYAMDYWGQGTSVTVSSAK
VL: DIQMTQSPSSLSASLGGKVTITCKTSQDINKYMAWYQHKPGKRPRLLIHYTSALQPGIPSRFSGSGSGRDYSFNISNLEPEDIATYYCLQYDNLWTFGGGTKLEIK
binding affinity for VLA-4 (VLA-4): about 10^9 M^−1
human lymphocyte binding to tissue cultures of rat brain cells stimulated with tumor necrosis factor [3]: inhibit
